Results as given in IntAct's records for PubMed 21262861.

Biological target: sox6_human SOX6 (UniProt P35712)
Sequence (P35712 whole entry): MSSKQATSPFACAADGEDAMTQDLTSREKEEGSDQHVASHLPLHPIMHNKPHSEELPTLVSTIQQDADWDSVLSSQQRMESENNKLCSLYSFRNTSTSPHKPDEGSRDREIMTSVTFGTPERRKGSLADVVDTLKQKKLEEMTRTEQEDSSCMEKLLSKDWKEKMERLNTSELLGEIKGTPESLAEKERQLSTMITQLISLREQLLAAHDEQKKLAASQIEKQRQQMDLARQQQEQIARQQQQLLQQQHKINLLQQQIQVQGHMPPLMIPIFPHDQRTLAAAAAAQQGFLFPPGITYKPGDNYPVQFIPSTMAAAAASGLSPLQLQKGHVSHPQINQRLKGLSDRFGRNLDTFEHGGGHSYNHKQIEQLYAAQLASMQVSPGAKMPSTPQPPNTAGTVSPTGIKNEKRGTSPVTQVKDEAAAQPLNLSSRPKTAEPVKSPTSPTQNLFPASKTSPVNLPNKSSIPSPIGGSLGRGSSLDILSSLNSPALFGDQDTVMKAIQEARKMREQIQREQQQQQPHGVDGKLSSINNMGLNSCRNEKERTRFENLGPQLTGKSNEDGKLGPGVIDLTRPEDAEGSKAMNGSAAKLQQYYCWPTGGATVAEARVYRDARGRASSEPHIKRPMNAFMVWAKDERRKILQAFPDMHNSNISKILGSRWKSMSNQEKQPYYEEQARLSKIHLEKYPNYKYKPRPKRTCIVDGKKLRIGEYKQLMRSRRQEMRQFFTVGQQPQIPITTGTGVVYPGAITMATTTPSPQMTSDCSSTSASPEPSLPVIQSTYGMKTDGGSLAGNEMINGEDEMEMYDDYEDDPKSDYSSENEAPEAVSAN

Chain of Short stature homeobox protein (Homo sapiens), O15266 K116E (O15266 whole entry K116E): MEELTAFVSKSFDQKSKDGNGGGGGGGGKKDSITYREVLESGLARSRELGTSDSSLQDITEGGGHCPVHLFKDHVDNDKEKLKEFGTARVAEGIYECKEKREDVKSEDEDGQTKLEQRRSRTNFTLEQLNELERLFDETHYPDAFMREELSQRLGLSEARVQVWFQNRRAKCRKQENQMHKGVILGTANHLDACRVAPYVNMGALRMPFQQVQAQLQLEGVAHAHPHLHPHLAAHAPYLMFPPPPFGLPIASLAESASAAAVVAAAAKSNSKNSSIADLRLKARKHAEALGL
Chain of Short stature homeobox protein (Homo sapiens), O15266 R173C (O15266 whole entry R173C): as the sequence (O15266 whole entry K116E) above, with E116K, R173C counted along it
Chain of Short stature homeobox protein (Homo sapiens), O15266 L132V (O15266 whole entry L132V): as the sequence (O15266 whole entry K116E) above, with E116K, L132V counted along it
Chain of Short stature homeobox protein (Homo sapiens), O15266 R195P (O15266 whole entry R195P): as the sequence (O15266 whole entry K116E) above, with E116K, R195P counted along it
Chain of Short stature homeobox protein (Homo sapiens), O15266 A233E (O15266 whole entry A233E): as the sequence (O15266 whole entry K116E) above, with E116K, A233E counted along it
Chain of Short stature homeobox protein (Homo sapiens), O15266 A170P (O15266 whole entry A170P): as the sequence (O15266 whole entry K116E) above, with E116K, A170P counted along it
Chain of Short stature homeobox protein (Homo sapiens), O15266 R168Y (O15266 whole entry R168Y): as the sequence (O15266 whole entry K116E) above, with E116K, R168Y counted along it
Chain of Short stature homeobox protein (Homo sapiens), O15266 D278A (O15266 whole entry D278A): as the sequence (O15266 whole entry K116E) above, with E116K, D278A counted along it

Substance	effect of a mutation on the interaction
Short stature homeobox protein (Homo sapiens), O15266 R168Y	decreasing interaction
Short stature homeobox protein (Homo sapiens), O15266 K116E	decreasing interaction
Short stature homeobox protein (Homo sapiens), O15266 D278A	decreasing interaction
Short stature homeobox protein (Homo sapiens), O15266 A233E	decreasing interaction
Short stature homeobox protein (Homo sapiens), O15266 R195P	decreasing interaction
Short stature homeobox protein (Homo sapiens), O15266 R173C	decreasing interaction
Short stature homeobox protein (Homo sapiens), O15266 L132V	disrupting interaction
Short stature homeobox protein (Homo sapiens), O15266 A170P	disrupting interaction
